Assays:
[1] = target: Recombinant AAV1 particles (Adeno-Associated Virus serotype 1 capsid) (Adeno-associated virus 1) (UniProt Q9WBP8); assay: SPR; BIAcore T200; AAV1 particles immobilised on a CM5 chip by amide coupling (in sodium acetate pH 4.5); AAVR flowed at different concentrations, 30 μL/min, 25 °C, 100 mM NaCl in 10 mM HEPES pH 7.4
[2] = target: Recombinant AAV2 particles (Adeno-Associated Virus serotype 2 capsid) (Adeno-associated virus 2); assay: ELISA; sandwich 'VIRELISA': 10 μg AAVR-His coated per well, AAV2 sample (1.0 × 10^8 v.g. in Table 1) 1 h at RT, blocked with BSA, AAVR-SBP-His probe 1 h in PBST, HRP-streptavidin, ABTS, read at 450 nm; probe concentration, SAV-HRP dilution and ABTS time varied in Table 1
[3] = target: T1, Recombinant AAV1 particles (Adeno-Associated Virus serotype 1 capsid) (Adeno-associated virus 1, UniProt Q9WBP8 1-736); assay: SPR
T1 chain 1: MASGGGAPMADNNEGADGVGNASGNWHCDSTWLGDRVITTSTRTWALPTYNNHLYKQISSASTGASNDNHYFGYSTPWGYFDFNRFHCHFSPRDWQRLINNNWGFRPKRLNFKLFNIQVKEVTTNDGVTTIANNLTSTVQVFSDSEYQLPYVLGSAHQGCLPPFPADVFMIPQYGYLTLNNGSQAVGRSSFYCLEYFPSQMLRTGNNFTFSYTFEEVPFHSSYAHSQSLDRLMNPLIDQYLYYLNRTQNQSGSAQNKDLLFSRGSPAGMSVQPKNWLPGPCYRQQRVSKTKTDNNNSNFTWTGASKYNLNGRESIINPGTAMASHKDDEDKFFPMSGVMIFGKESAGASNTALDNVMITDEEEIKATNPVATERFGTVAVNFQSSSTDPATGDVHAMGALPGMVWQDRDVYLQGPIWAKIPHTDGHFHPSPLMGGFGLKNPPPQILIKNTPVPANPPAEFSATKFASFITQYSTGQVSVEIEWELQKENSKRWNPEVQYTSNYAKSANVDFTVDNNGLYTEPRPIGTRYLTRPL
T1 chain 2: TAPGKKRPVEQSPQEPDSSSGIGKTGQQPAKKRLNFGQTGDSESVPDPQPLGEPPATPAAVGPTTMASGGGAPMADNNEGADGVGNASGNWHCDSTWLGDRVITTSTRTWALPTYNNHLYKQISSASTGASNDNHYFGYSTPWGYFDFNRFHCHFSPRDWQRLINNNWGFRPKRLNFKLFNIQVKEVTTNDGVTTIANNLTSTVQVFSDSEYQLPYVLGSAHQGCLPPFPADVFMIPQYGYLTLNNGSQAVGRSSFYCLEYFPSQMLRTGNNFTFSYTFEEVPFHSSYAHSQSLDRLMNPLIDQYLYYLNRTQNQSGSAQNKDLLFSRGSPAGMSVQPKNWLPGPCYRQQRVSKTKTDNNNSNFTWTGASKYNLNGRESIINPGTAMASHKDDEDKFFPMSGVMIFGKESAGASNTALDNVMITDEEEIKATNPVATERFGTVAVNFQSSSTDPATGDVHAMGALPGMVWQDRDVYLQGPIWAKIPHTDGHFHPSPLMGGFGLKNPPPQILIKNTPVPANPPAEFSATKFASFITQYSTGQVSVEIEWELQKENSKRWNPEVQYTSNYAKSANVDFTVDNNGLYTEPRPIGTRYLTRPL
T1 chain 3: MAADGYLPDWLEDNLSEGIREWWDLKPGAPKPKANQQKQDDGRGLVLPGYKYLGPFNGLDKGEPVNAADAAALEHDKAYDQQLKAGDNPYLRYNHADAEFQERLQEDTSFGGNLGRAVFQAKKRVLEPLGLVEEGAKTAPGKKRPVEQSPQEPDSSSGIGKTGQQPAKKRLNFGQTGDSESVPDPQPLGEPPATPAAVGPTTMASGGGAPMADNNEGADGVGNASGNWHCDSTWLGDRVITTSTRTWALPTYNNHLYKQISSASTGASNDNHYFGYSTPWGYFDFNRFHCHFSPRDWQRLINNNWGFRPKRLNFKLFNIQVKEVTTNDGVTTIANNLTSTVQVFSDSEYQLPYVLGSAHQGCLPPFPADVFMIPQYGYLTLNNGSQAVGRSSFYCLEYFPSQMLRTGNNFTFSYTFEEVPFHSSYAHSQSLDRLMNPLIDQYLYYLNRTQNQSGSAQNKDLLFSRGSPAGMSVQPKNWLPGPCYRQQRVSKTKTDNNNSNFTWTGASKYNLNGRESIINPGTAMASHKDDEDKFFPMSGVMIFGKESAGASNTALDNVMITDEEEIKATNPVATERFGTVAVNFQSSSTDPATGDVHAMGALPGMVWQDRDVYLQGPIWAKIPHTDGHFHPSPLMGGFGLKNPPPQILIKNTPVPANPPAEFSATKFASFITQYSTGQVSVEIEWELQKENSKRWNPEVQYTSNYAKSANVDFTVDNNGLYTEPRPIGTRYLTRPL

Chain of Recombinant AAV2 particles (Adeno-Associated Virus serotype 2 capsid) (Adeno-associated virus 2) (O56652 whole entry, chain 1 of 3): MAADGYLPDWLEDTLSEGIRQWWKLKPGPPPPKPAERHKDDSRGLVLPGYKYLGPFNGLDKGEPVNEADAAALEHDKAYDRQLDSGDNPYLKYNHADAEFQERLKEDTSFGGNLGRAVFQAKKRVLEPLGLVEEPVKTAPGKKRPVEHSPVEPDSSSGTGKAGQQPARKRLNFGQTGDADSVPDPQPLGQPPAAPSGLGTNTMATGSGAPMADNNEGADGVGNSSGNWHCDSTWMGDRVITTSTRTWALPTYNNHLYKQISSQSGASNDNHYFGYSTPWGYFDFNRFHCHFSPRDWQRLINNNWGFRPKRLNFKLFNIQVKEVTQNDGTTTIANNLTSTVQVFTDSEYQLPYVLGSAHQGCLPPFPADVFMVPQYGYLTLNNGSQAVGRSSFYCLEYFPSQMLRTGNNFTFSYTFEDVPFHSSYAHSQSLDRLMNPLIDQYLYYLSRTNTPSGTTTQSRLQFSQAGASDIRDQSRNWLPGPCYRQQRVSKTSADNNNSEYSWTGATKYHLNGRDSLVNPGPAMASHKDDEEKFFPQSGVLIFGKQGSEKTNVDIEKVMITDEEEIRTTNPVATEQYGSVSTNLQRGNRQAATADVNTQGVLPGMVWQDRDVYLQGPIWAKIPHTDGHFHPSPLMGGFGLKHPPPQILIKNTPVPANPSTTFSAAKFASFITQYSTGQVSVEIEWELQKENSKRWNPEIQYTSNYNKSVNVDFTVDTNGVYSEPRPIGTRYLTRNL
Chain of Recombinant AAV2 particles (Adeno-Associated Virus serotype 2 capsid) (Adeno-associated virus 2) (P03135 139-735, tags left off, chain 2 of 3, further chain): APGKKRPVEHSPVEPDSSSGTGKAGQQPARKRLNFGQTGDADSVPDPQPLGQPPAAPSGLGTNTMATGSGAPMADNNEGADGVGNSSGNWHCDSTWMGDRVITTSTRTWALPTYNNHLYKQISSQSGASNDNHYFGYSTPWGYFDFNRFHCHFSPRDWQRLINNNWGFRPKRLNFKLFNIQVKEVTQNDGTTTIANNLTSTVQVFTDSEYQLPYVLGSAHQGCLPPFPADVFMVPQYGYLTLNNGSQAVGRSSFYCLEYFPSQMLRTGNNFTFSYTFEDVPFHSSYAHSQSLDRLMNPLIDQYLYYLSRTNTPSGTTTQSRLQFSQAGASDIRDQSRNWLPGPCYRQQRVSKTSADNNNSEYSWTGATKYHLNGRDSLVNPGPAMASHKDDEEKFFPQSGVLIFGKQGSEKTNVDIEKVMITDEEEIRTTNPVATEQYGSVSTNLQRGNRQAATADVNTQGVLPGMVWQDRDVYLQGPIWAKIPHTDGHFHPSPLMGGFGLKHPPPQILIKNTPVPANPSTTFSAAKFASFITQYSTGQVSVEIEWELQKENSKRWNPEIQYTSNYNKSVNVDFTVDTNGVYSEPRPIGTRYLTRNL
Chain of Recombinant AAV2 particles (Adeno-Associated Virus serotype 2 capsid) (Adeno-associated virus 2) (P03135 203-735 limits assumed, chain 3 of 3, further chain): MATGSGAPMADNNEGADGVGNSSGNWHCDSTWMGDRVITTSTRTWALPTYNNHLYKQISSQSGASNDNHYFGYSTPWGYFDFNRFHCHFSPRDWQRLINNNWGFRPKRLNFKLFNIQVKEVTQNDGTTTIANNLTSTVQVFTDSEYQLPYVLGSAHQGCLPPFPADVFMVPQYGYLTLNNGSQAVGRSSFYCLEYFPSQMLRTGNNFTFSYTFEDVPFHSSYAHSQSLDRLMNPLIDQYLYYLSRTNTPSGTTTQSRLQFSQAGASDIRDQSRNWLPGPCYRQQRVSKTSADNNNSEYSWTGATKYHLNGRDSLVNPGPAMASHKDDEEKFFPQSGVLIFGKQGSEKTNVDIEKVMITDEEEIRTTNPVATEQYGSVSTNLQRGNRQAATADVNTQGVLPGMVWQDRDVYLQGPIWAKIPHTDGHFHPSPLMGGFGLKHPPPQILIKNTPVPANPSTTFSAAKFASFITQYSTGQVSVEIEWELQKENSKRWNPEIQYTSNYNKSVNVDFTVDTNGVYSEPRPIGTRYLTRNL

“Soluble recombinant AAVR (analyte of the BIAcore assay) (domain or fragment)” was tested, and the Kd [1] was 255 nM.

“AAVR-SBP-His (AAVR PKD domains 1–5 with C-terminal streptavidin binding peptide and 6× His-tag in tandem) (domain or fragment)” gave an absorbance at 450 nm, AAVR-SBP-His 50 μg/mL (absorbance (450 nm)) [2] of 0.662, an absorbance at 450 nm, AAVR-SBP-His 100 μg/mL (absorbance (450 nm)) [2] of 0.861 and an absorbance at 450 nm, ABTS incubating time 10 min (absorbance (450 nm)) [2] of 0.32. It also gave an absorbance at 450 nm, ABTS incubating time 15 min (absorbance (450 nm)) [2] of 0.663, an absorbance at 450 nm, ABTS incubating time 20 min (absorbance (450 nm)) [2] of 0.819 and an absorbance at 450 nm, ABTS incubating time 30 min (absorbance (450 nm)) [2] of 1.33. The absorbance at 450 nm, SAV-HRP dilution 1/1000 (absorbance (450 nm)) [2] was 0.872, the absorbance at 450 nm, SAV-HRP dilution 1/2000 (absorbance (450 nm)) [2] was 0.798 and the absorbance at 450 nm, SAV-HRP dilution 1/5000 (absorbance (450 nm)) [2] was 0.662.

B1: Soluble recombinant AAVR (analyte of the BIAcore assay) (domain or fragment)
chain: SAGESVQITLPKNEVQLNAYVLQEPPKGETYTYDWQLITHPRDYSGEMEGKHSQILKLSKLTPGLYEFKVIVEGQNAHGEGYVNVTVKPEPRKNRPPIAIVSPQFQEISLPTTSTVIDGSQSTDDDKIVQYHWEELKGPLREEKISEDTAILKLSKLVPGNYTFSLTVVDSDGATNSTTANLTVNKAVDYPPVANAGPNQVITLPQNSITLFGNQSTDDHGITSYEWSLSPSSKGKVVEMQGVRTPTLQLSAMQEGDYTYQLTVTDTIGQQATAQVTVIVQPENNKPPQADAGPDKELTLPVDSTTLDGSKSSDDQKIISYLWEKTQGPDGVQLENANSSVATVTGLQVGTYVFTLTVKDERNLQSQSSVNVIVKEEINKPPIAKITGNVVITLPTSTAELDGSKSSDDKGIVSYLWTRDEGSPAAGEVLNHSDHHPILFLSNLVEGTYTFHLKVTDAKGESDTDRTTVEVKPD
In the case of B1, the koff [3] is reported as 0.00184 s⁻¹.
